Laboratory results from patent US20230242902A1, “A HIGHLY ERROR-PRONE […] R[…] FOR TARGETED CONTINUOUS EVOLUTION IN VIVO” (The Regents of the University of California, priority 2017, published 2023).
Numbering of substitutions follows the chain as printed. In names and notes the source's numbering stands.

Test system: p1
Test: p1 copy number by p1-encoded mKate2 fluorescence
Format: cell-based, S. cerevisiae
Settings: OR-Y24, measured in triplicate
Summary of the method: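 Steps: transform TP-DNAP1 variant into OR-Y24; passage until w.t. p1 displaced; dilute 1:10,000 and grow to saturation in triplicate; measure p1-encoded mKate2 fluorescence; convert to copy number via linear qPCR-based calibration. Four high-copy variants were checked directly by qPCR.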

B1: K302A: TP-DNAP1 variant (protein)
chain: MDYKDKALNDLRNVYADFDSLPLDFRQILIKDRATLLQKEDVEKKILERQEDAKKYAEYLKQSEIPERISLPNIKRHKGVSISFEETSEDMVLEPRPFIFDGLNIRCFRRETIFSLKNKILNMVKESSSFKNVSRQSVSFMYFKIFNKGKVIASTKSVNIYEDKIDERLEDLCNNFDDVLKKIIDVTYGYESLFVSETYSYVIFYAKSIYFPQPRCVNNWGNNIPNILTFDSFKLFTANKNNVSCIKQCSRFLWQKDFNTLEEMIEYKNGNICIVTPQLHINDVRDIKSFNDIRLYSESPIATFSVIDNTITYLFYFKEHLGVIFNITKSRHDRRVTKFSPLSKFSDVKNITVCFDIESYFDPEKESNQVNIPFICCASIIYNKVIGNIVDFEGRDCVAQMIEYVVDICGELNISSVELIAHNGGGYDFHYILSSMYNPAAIKNILIRNNSFISFNFAHDGVKFSVKDSYSFLLCSLANASKAFLNEETFKKTDFPHHDLKTADDLYKVYKEWSSVNTEINHVVEKEKLLITSEHIVNFTKNDKSKTLIEWSKDYCRNDVLVLSKVWLEFKNAVEDIFNCELVDQTMTLAGLSYKLFQANMPFDVELRHPNKEDYFNMREALIGGRCISVNGIYKDVLCLDVKSLYPASMAFYDQPYGSFKRVSSRPKDELGIYYVRVTPNRNNKSNFFPIRSHNKITYNNFEESTYIAWYTNVDIDIGLSEGHNIEYIPFDSYGNIGYSWSKKGKIFEKYIKDVLYKLKIKYEKQNNKVKRNVIKIIMNSLWGKFAQKWVNFEYFIKSEDDIDFESEEAYKIWDTDFMLIKKIKESTYSSKPIQNGVFTLSWARYHMKSIWDAGAKEGAECIYSDTDSIFVHKEHFKKNAKFMLNGLKVPIIGSEVGQLELECEFDKLLCAGKKQYMGFYTYFQDGKPCIKEKKRFKGIPSNYIIPELYAHLLSGADKEAKIQFLKFRREWGSVKGYIENKTVKAT
Mean fold-increase over w.t. (p1 copy number): 1.88 fold

B2: I311A: TP-DNAP1 variant (protein)
chain: B1 chain with A302K, I311A
Mean fold-increase over w.t. (p1 copy number): 2.19 fold

B3: T303H: TP-DNAP1 variant (protein, listed as Kluyveromyces lactis)
chain: B1 chain with A302K, T303H
Mean fold-increase over w.t. (p1 copy number): 2.3 fold

B4: Y316R: TP-DNAP1 variant (protein)
chain: B1 chain with A302K, Y316R
Mean fold-increase over w.t. (p1 copy number): 2.46 fold

B5: T303M: TP-DNAP1 variant (protein)
chain: B1 chain with A302K, T303M
Mean fold-increase over w.t. (p1 copy number): 2.5 fold

B6: I311M: TP-DNAP1 variant (protein)
chain: B1 chain with A302K, I311M
Mean fold-increase over w.t. (p1 copy number): 2.26 fold

B7: Y313H: TP-DNAP1 variant (protein)
chain: B1 chain with A302K, Y313H
Mean fold-increase over w.t. (p1 copy number): 3.08 fold

B8: I327Q: TP-DNAP1 variant (protein)
chain: B1 chain with A302K, I327Q
Mean fold-increase over w.t. (p1 copy number): 2.15 fold

B9: T303L: TP-DNAP1 variant (protein)
chain: B1 chain with A302K, T303L
Mean fold-increase over w.t. (p1 copy number): 2.41 fold

B10: T310F: TP-DNAP1 variant (protein)
chain: B1 chain with A302K, T310F
Mean fold-increase over w.t. (p1 copy number): 2.66 fold

B11: T303W: TP-DNAP1 variant (protein)
chain: B1 chain with A302K, T303W
Mean fold-increase over w.t. (p1 copy number): 2.96 fold

B12: T310N: TP-DNAP1 variant (protein)
chain: B1 chain with A302K, T310N
Mean fold-increase over w.t. (p1 copy number): 2.83 fold

B13: S305N: TP-DNAP1 variant (protein)
chain: B1 chain with A302K, S305N
Mean fold-increase over w.t. (p1 copy number): 2.3 fold

B14: T310H: TP-DNAP1 variant (protein)
chain: B1 chain with A302K, T310H
Mean fold-increase over w.t. (p1 copy number): 2.57 fold

B15: D333A: TP-DNAP1 variant (protein)
chain: B1 chain with A302K, D333A
Mean fold-increase over w.t. (p1 copy number): 1.57 fold

B16: Y313W: TP-DNAP1 variant (protein)
chain: B1 chain with A302K, Y313W
Mean fold-increase over w.t. (p1 copy number): 2.15 fold

B17: N309K, I311G: TP-DNAP1 variant (protein)
chain: B1 chain with A302K, N309K, I311G
Mean fold-increase over w.t. (p1 copy number): 2.2 fold

B18: T310E: TP-DNAP1 variant (protein)
chain: B1 chain with A302K, T310E
Mean fold-increase over w.t. (p1 copy number): 2.37 fold

B19: S330R: TP-DNAP1 variant (protein)
chain: B1 chain with A302K, S330R
Mean fold-increase over w.t. (p1 copy number): 2.21 fold

B20: T310D: TP-DNAP1 variant (protein)
chain: B1 chain with A302K, T310D
Mean fold-increase over w.t. (p1 copy number): 2.64 fold

B21: F304R: TP-DNAP1 variant (protein)
chain: B1 chain with A302K, F304R
Mean fold-increase over w.t. (p1 copy number): 3.49 fold

B22: S305G: TP-DNAP1 variant (protein)
chain: B1 chain with A302K, S305G
Mean fold-increase over w.t. (p1 copy number): 2.53 fold

B23: Y313M: TP-DNAP1 variant (protein)
chain: B1 chain with A302K, Y313M
Mean fold-increase over w.t. (p1 copy number): 1.94 fold

B24: D308Q: TP-DNAP1 variant (protein)
chain: B1 chain with A302K, D308Q
Mean fold-increase over w.t. (p1 copy number): 2.15 fold

B25: F304A: TP-DNAP1 variant (protein)
chain: B1 chain with A302K, F304A
Mean fold-increase over w.t. (p1 copy number): 2.14 fold

B26: I311D: TP-DNAP1 variant (protein)
chain: B1 chain with A302K, I311D
Mean fold-increase over w.t. (p1 copy number): 1.86 fold

B27: I307L: TP-DNAP1 variant (protein)
chain: B1 chain with A302K, I307L
Mean fold-increase over w.t. (p1 copy number): 2.76 fold

B28: D333N: TP-DNAP1 variant (protein)
chain: B1 chain with A302K, D333N
Mean fold-increase over w.t. (p1 copy number): 2.07 fold

B29: Y313V: TP-DNAP1 variant (protein)
chain: B1 chain with A302K, Y313V
Mean fold-increase over w.t. (p1 copy number): 2.48 fold

B30: Y313F: TP-DNAP1 variant (protein)
chain: B1 chain with A302K, Y313F
Mean fold-increase over w.t. (p1 copy number): 2.11 fold

B31: I311N: TP-DNAP1 variant (protein)
chain: B1 chain with A302K, I311N
Mean fold-increase over w.t. (p1 copy number): 2.55 fold

B32: N309C: TP-DNAP1 variant (protein)
chain: B1 chain with A302K, N309C
Mean fold-increase over w.t. (p1 copy number): 2.25 fold

B33: T310W: TP-DNAP1 variant (protein)
chain: B1 chain with A302K, T310W
Mean fold-increase over w.t. (p1 copy number): 2.48 fold

B34: T312Q: TP-DNAP1 variant (protein)
chain: B1 chain with A302K, T312Q
Mean fold-increase over w.t. (p1 copy number): 2.85 fold

B35: I311G: TP-DNAP1 variant (protein)
chain: B1 chain with A302K, I311G
Mean fold-increase over w.t. (p1 copy number): 2.05 fold

B36: F304Y: TP-DNAP1 variant (protein)
chain: B1 chain with A302K, F304Y
Mean fold-increase over w.t. (p1 copy number): 2.41 fold

B37: T312E: TP-DNAP1 variant (protein)
chain: B1 chain with A302K, T312E
Mean fold-increase over w.t. (p1 copy number): 2.29 fold
